Data published in patent US20250032576A1, “CNP Therapy” (BIOMARIN PHARMACEUTICAL INC., priority 2021, published 2025).

Tested on: NPR2
Assay: cGMP catchpoint assay of NPR2 variants in transfected HEK293 cells treated with 20 nM CNP
Assay type: cell-based
Design: key to Lable: loss-of-function (LoF); Gain-of-function (GoF)
Settings: for average phenotype: cGMP normalized to RedLuciferase and to WT = 1, HEK293, 20 nM CNP, 0.4 nM IBMX, at least 3 repeat experiments with 4 replicates each; for Lable: high-confidence variant class
Description: Described herein is an in-vitro assay (cGMP) to assess the activities of >260 NPR2 variants. NPR2 protein-altering variants have been identified in the UK Biobank study and described in Estrada et al. (Nat Commun. 2021 12 (1): 2224). NPR2-expression constructs were transfected into HEK293 cells and 3 days later cells were treated with […] IBMX and 20 nM CNP in serum-free DMEM prior to measuring cGMP levels. The cGMP catchpoint ELISA competition assay (Molecular Devices) was used to measure cGMP according to manufacturer recommendations. RedLuc was used as a transfection control (FIG. 8A).
The NPR2 alpha-fold structure was obtained from a recent alpha-fold publication (Jumper et al., Nature 596:583-589 (2021)). A list of phenotypically characterized “high-confidence” variants was generated (Table 4). Phenotype is calculated by determining levels of cGMP using a standard curve. This value to normalized to RedLuciferase (transfection control). This value is further normalized by setting WT to 1. Average value is calculated from at least 3 repeat experiments with 4 replicates each.

| Molecule | average phenotype | Lable |
| --- | --- | --- |
| Trp42Arg: NPR2 protein-altering variant, expression construct transfected into HEK293 cells (protein) RNLTLAVVLPEHNLSYAWARPRVGPAVALAVEALGRALPVDLRFVSSELEGACSEYLAPLSAVDLKLYHDPDLLLGPGCVYPAASVARFASHWRLPLLTAGAVASGFSAKNDHYRTLVRTGPSAPKLGEFVVTLHGHFNWTARAALLYLDARTDDRPHYFTIEGVFEALQGSNLSVQHQVYAREPGGPEQATHFIRANGRIVYICGPLEMLHEILLQAQRENLTNGDYVFFYLDVFGESLRAGPTRATGRPWQDNRTREQAQALREAFQTVLVITYREPPNPEYQEFQNRLLIRAREDFGVELGPSLMNLIAGCFYDGILLYAEVLNETIQEGGTREDGLRIVEKMQGRRYHGVTGLVVMDKNNDRETDFVLWAMGDLDSGDFQPAAHYSGAEKQIWWTGRPIPWVKGAPPSDNPPCAFDLDDPSCDKTPLSTLAIVALGTGITFIMFGVSSFLIFRKLMLEKELASMLWRIRWEELQFGNSERYHKGAGSRLTLSLRGSSYGSLMTAHGKYQIFANTGHFKGNVVAIKHVNKKRIELTRQVLFELKHMRDVQFNHLTRFIGACIDPPNICIVTEYCPRGSLQDILENDSINLDWMFRYSLINDLVKGMAFLHNSIISSHGSLKSSNCVVDSRFVLKITDYGLASFRSTAEPDDSHALYAKKLWTAPELLSGNPLPTTGMQKADVYSFGIILQEIALRSGPFYLEGLDLSPKEIVQKVRNGQRPYFRPSIDRTQLNEELVLLMERCWAQDPAERPDFGQIKGFIRRFNKEGGTSILDNLLLRMEQYANNLEKLVEERTQAYLEEKRKAEALLYQILPHSVAEQLKRGETVQAEAFDSVTIYFSDIVGFTALSAESTPMQVVTLLNDLYTCFDAIIDNFDVYKVETIGDAYMVVSGLPGRNGQRHAPEIARMALALLDAVSSFRIRHRPHDQLRLRIGVHTGPVCAGVVGLKMPRYCLFGDTVNTASRMESNGQALKIHVSSTTKDALDELGCFQLELRGDVEMKGKGKMRTYWLLGERKGPPGLL | 0.0288 | LoF |
| Thr297Met: NPR2 protein-altering variant, expression construct transfected into HEK293 cells (protein) RNLTLAVVLPEHNLSYAWAWPRVGPAVALAVEALGRALPVDLRFVSSELEGACSEYLAPLSAVDLKLYHDPDLLLGPGCVYPAASVARFASHWRLPLLTAGAVASGFSAKNDHYRTLVRTGPSAPKLGEFVVTLHGHFNWTARAALLYLDARTDDRPHYFTIEGVFEALQGSNLSVQHQVYAREPGGPEQATHFIRANGRIVYICGPLEMLHEILLQAQRENLTNGDYVFFYLDVFGESLRAGPTRATGRPWQDNRTREQAQALREAFQTVLVIMYREPPNPEYQEFQNRLLIRAREDFGVELGPSLMNLIAGCFYDGILLYAEVLNETIQEGGTREDGLRIVEKMQGRRYHGVTGLVVMDKNNDRETDFVLWAMGDLDSGDFQPAAHYSGAEKQIWWTGRPIPWVKGAPPSDNPPCAFDLDDPSCDKTPLSTLAIVALGTGITFIMFGVSSFLIFRKLMLEKELASMLWRIRWEELQFGNSERYHKGAGSRLTLSLRGSSYGSLMTAHGKYQIFANTGHFKGNVVAIKHVNKKRIELTRQVLFELKHMRDVQFNHLTRFIGACIDPPNICIVTEYCPRGSLQDILENDSINLDWMFRYSLINDLVKGMAFLHNSIISSHGSLKSSNCVVDSRFVLKITDYGLASFRSTAEPDDSHALYAKKLWTAPELLSGNPLPTTGMQKADVYSFGIILQEIALRSGPFYLEGLDLSPKEIVQKVRNGQRPYFRPSIDRTQLNEELVLLMERCWAQDPAERPDFGQIKGFIRRFNKEGGTSILDNLLLRMEQYANNLEKLVEERTQAYLEEKRKAEALLYQILPHSVAEQLKRGETVQAEAFDSVTIYFSDIVGFTALSAESTPMQVVTLLNDLYTCFDAIIDNFDVYKVETIGDAYMVVSGLPGRNGQRHAPEIARMALALLDAVSSFRIRHRPHDQLRLRIGVHTGPVCAGVVGLKMPRYCLFGDTVNTASRMESNGQALKIHVSSTTKDALDELGCFQLELRGDVEMKGKGKMRTYWLLGERKGPPGLL | 0.03025 | LoF |
| Ile494Ser: NPR2 protein-altering variant, expression construct transfected into HEK293 cells (protein) RNLTLAVVLPEHNLSYAWAWPRVGPAVALAVEALGRALPVDLRFVSSELEGACSEYLAPLSAVDLKLYHDPDLLLGPGCVYPAASVARFASHWRLPLLTAGAVASGFSAKNDHYRTLVRTGPSAPKLGEFVVTLHGHFNWTARAALLYLDARTDDRPHYFTIEGVFEALQGSNLSVQHQVYAREPGGPEQATHFIRANGRIVYICGPLEMLHEILLQAQRENLTNGDYVFFYLDVFGESLRAGPTRATGRPWQDNRTREQAQALREAFQTVLVITYREPPNPEYQEFQNRLLIRAREDFGVELGPSLMNLIAGCFYDGILLYAEVLNETIQEGGTREDGLRIVEKMQGRRYHGVTGLVVMDKNNDRETDFVLWAMGDLDSGDFQPAAHYSGAEKQIWWTGRPIPWVKGAPPSDNPPCAFDLDDPSCDKTPLSTLAIVALGTGITFIMFGVSSFLIFRKLMLEKELASMLWRSRWEELQFGNSERYHKGAGSRLTLSLRGSSYGSLMTAHGKYQIFANTGHFKGNVVAIKHVNKKRIELTRQVLFELKHMRDVQFNHLTRFIGACIDPPNICIVTEYCPRGSLQDILENDSINLDWMFRYSLINDLVKGMAFLHNSIISSHGSLKSSNCVVDSRFVLKITDYGLASFRSTAEPDDSHALYAKKLWTAPELLSGNPLPTTGMQKADVYSFGIILQEIALRSGPFYLEGLDLSPKEIVQKVRNGQRPYFRPSIDRTQLNEELVLLMERCWAQDPAERPDFGQIKGFIRRFNKEGGTSILDNLLLRMEQYANNLEKLVEERTQAYLEEKRKAEALLYQILPHSVAEQLKRGETVQAEAFDSVTIYFSDIVGFTALSAESTPMQVVTLLNDLYTCFDAIIDNFDVYKVETIGDAYMVVSGLPGRNGQRHAPEIARMALALLDAVSSFRIRHRPHDQLRLRIGVHTGPVCAGVVGLKMPRYCLFGDTVNTASRMESNGQALKIHVSSTTKDALDELGCFQLELRGDVEMKGKGKMRTYWLLGERKGPPGLL | 0.03638 | LoF |
| Glu77Lys: NPR2 protein-altering variant, expression construct transfected into HEK293 cells (protein) RNLTLAVVLPEHNLSYAWAWPRVGPAVALAVEALGRALPVDLRFVSSELEGACSKYLAPLSAVDLKLYHDPDLLLGPGCVYPAASVARFASHWRLPLLTAGAVASGFSAKNDHYRTLVRTGPSAPKLGEFVVTLHGHFNWTARAALLYLDARTDDRPHYFTIEGVFEALQGSNLSVQHQVYAREPGGPEQATHFIRANGRIVYICGPLEMLHEILLQAQRENLTNGDYVFFYLDVFGESLRAGPTRATGRPWQDNRTREQAQALREAFQTVLVITYREPPNPEYQEFQNRLLIRAREDFGVELGPSLMNLIAGCFYDGILLYAEVLNETIQEGGTREDGLRIVEKMQGRRYHGVTGLVVMDKNNDRETDFVLWAMGDLDSGDFQPAAHYSGAEKQIWWTGRPIPWVKGAPPSDNPPCAFDLDDPSCDKTPLSTLAIVALGTGITFIMFGVSSFLIFRKLMLEKELASMLWRIRWEELQFGNSERYHKGAGSRLTLSLRGSSYGSLMTAHGKYQIFANTGHFKGNVVAIKHVNKKRIELTRQVLFELKHMRDVQFNHLTRFIGACIDPPNICIVTEYCPRGSLQDILENDSINLDWMFRYSLINDLVKGMAFLHNSIISSHGSLKSSNCVVDSRFVLKITDYGLASFRSTAEPDDSHALYAKKLWTAPELLSGNPLPTTGMQKADVYSFGIILQEIALRSGPFYLEGLDLSPKEIVQKVRNGQRPYFRPSIDRTQLNEELVLLMERCWAQDPAERPDFGQIKGFIRRFNKEGGTSILDNLLLRMEQYANNLEKLVEERTQAYLEEKRKAEALLYQILPHSVAEQLKRGETVQAEAFDSVTIYFSDIVGFTALSAESTPMQVVTLLNDLYTCFDAIIDNFDVYKVETIGDAYMVVSGLPGRNGQRHAPEIARMALALLDAVSSFRIRHRPHDQLRLRIGVHTGPVCAGVVGLKMPRYCLFGDTVNTASRMESNGQALKIHVSSTTKDALDELGCFQLELRGDVEMKGKGKMRTYWLLGERKGPPGLL | 0.04986 | LoF |
